In article PMC10397247:
One block for each binder: values may come before it.

Experiments:
4H3413-AA = biological target: T1, 4H3413-AA; test: two-hybrid library CCmax; conditions: mean of both orientations;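 further: natural log of median RNA to DNA barcode read ratio; higher means stronger binding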
T1 chain: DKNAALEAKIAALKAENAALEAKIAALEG

4H1845-AA = biological target: T2, 4H1845-AA; test: two-hybrid library CCmax; conditions: mean of both orientations;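 further: natural log of median RNA to DNA barcode read ratio; higher means stronger binding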
T2 chain: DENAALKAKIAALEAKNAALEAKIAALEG

4H384-AA = biological target: T3, 4H384-AA; test: two-hybrid library CCmax; conditions: mean of both orientations;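 further: natural log of median RNA to DNA barcode read ratio; higher means stronger binding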
T3 chain: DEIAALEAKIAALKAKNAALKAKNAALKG

4H697-AA = biological target: T4, 4H697-AA; test: two-hybrid library CCmax; conditions: mean of both orientations;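 further: natural log of median RNA to DNA barcode read ratio; higher means stronger binding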
T4 chain: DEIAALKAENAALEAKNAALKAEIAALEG

4H2648-AA = biological target: T5, 4H2648-AA; test: two-hybrid library CCmax; conditions: mean of both orientations
T5 chain: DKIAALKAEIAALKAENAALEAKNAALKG

4H3378-AA = biological target: T6, 4H3378-AA; test: two-hybrid library CCmax; conditions: mean of both orientations
T6 chain: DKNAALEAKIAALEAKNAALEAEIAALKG

4H3162-AA = biological target: T7, 4H3162-AA; test: two-hybrid library CCmax; conditions: mean of both orientations
T7 chain: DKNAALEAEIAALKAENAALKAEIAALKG

4H2620-AA = biological target: T8, 4H2620-AA; test: two-hybrid library CCmax; conditions: mean of both orientations
T8 chain: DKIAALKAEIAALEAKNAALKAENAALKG

4H32-AA = biological target: T9, 4H32-AA; test: two-hybrid library CCmax; conditions: mean of both orientations
T9 chain: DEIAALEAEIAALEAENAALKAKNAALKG

4H3606-AA = biological target: T10, 4H3606-AA; test: two-hybrid library CCmax; conditions: mean of both orientations
T10 chain: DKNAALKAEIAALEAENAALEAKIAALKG

4H3697-AA = biological target: T11, 4H3697-AA; test: two-hybrid library CCmax; conditions: mean of both orientations
T11 chain: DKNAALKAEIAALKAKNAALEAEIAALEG

4H3133-AA = biological target: T12, 4H3133-AA; test: two-hybrid library CCmax; conditions: mean of both orientations
T12 chain: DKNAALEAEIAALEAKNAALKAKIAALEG

4H2907-AA = biological target: T13, 4H2907-AA; test: two-hybrid library CCmax; conditions: mean of both orientations
T13 chain: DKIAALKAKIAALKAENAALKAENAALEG

4H2611-AA = biological target: T14, 4H2611-AA; test: two-hybrid library CCmax; conditions: mean of both orientations
T14 chain: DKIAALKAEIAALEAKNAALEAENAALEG

4H3588-AA = biological target: T15, 4H3588-AA; test: two-hybrid library CCmax; conditions: mean of both orientations
T15 chain: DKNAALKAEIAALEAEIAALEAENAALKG

4H3056-AA = biological target: T16, 4H3056-AA; test: two-hybrid library CCmax; conditions: mean of both orientations
T16 chain: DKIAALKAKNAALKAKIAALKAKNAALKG

4H1629-AA = biological target: T17, 4H1629-AA; test: two-hybrid library CCmax
T17 chain: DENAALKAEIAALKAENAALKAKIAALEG

4H3631-AA = biological target: T18, 4H3631-AA; test: two-hybrid library CCmax; conditions: mean of both orientations
T18 chain: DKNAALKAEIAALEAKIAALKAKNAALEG

4H2553-AA = biological target: T19, 4H2553-AA; test: two-hybrid library CCmax; conditions: mean of both orientations
T19 chain: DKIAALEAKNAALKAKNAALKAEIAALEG

4H3718-AA = biological target: T20, 4H3718-AA; test: two-hybrid library CCmax; conditions: mean of both orientations
T20 chain: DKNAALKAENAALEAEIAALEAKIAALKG

4H982-AA = biological target: T21, 4H982-AA; test: two-hybrid library CCmax; conditions: mean of both orientations
T21 chain: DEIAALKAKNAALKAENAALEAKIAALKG

4H3865-AA = biological target: T22, 4H3865-AA; test: two-hybrid library CCmax; conditions: mean of both orientations
T22 chain: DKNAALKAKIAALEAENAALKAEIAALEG

4H1874-AA = biological target: T23, 4H1874-AA; test: two-hybrid library CCmax; conditions: mean of both orientations
T23 chain: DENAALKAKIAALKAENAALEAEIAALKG

4H340-AA = biological target: T24, 4H340-AA; test: two-hybrid library CCmax; conditions: mean of both orientations
T24 chain: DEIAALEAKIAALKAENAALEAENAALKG

4H2198-AA = biological target: T25, 4H2198-AA; test: two-hybrid library CCmax; conditions: mean of both orientations
T25 chain: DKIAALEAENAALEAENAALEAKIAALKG

4H687-AA = biological target: T26, 4H687-AA; test: two-hybrid library CCmax; conditions: mean of both orientations
T26 chain: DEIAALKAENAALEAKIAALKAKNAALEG

4H4001-AA = biological target: T27, 4H4001-AA; test: two-hybrid library CCmax
T27 chain: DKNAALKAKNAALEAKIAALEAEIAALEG

4H797-AA = biological target: T28, 4H797-AA; test: two-hybrid library CCmax; conditions: mean of both orientations
T28 chain: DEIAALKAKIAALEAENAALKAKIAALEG

4H717-AA = biological target: T29, 4H717-AA; test: two-hybrid library CCmax; conditions: mean of both orientations
T29 chain: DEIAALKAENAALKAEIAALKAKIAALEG

4H883-AA = biological target: T30, 4H883-AA; test: two-hybrid library CCmax; conditions: mean of both orientations
T30 chain: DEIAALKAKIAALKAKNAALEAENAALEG

4H953-AA = biological target: T31, 4H953-AA; test: two-hybrid library CCmax; conditions: mean of both orientations
T31 chain: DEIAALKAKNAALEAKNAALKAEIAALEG

4H918-AA = biological target: T32, 4H918-AA; test: two-hybrid library CCmax; conditions: mean of both orientations
T32 chain: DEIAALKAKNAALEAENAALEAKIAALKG

4H967-AA = biological target: T33, 4H967-AA; test: two-hybrid library CCmax; conditions: mean of both orientations
T33 chain: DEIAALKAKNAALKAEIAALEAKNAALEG

4H568-AA = biological target: T34, 4H568-AA; test: two-hybrid library CCmax; conditions: mean of both orientations
T34 chain: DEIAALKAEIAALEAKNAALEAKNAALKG

O6-bH = biological target: T35, O6-bH; test: two-hybrid library CCNG1
T35 chain: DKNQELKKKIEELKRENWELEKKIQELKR

O8-bH = biological target: T36, O8-bH; test: two-hybrid library CCNG1
T36 chain: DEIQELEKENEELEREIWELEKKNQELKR

O7-bH = biological target: T37, O7-bH; test: two-hybrid library CCNG1
T37 chain: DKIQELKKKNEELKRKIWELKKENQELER

O9-bH = biological target: T38, O9-bH; test: two-hybrid library CCNG1
T38 chain: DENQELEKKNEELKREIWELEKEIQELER

O5-bH = biological target: T39, O5-bH; test: two-hybrid library CCNG1
T39 chain: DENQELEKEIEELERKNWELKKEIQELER

O3-bH = biological target: T40, O3-bH; test: two-hybrid library CCNG1
T40 chain: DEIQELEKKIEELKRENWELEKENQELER

O8-bP = biological target: T41, O8-bP; test: two-hybrid library CCNG1
T41 chain: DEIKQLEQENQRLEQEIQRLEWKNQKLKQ

O4-bH = biological target: T42, O4-bH; test: two-hybrid library CCNG1
T42 chain: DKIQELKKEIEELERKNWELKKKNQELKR

- interaction score (4H3413-AA): -0.212
- interaction score (4H1845-AA): -1.22
- interaction score (4H384-AA): -1.82
- interaction score (4H697-AA): -1.58
- interaction score (4H2648-AA): -1.18
- interaction score (4H3378-AA): -1.39
- interaction score (4H3162-AA): -0.752
- interaction score (4H2620-AA): -1.66
- interaction score (4H32-AA): -1.13
- interaction score (4H3606-AA): 0.462
- interaction score (4H3697-AA): -0.847
- interaction score (4H3133-AA): -1
- interaction score (4H2907-AA): -1.89
- interaction score (4H2611-AA): -1.42
- interaction score (4H3588-AA): -1.46
- interaction score (4H3056-AA): -1.6
- interaction score (4H1629-AA): 2.04
- interaction score (4H3631-AA): -1.7
- interaction score (4H2553-AA): -1.61
- interaction score (4H3718-AA): -1.62
- interaction score (4H982-AA): -1.55
- interaction score (4H3865-AA): -0.375
- interaction score (4H1874-AA): -0.00053
- interaction score (4H340-AA): -1.67
- interaction score (4H2198-AA): -1.33
Binder: DENAALKAEIAALKAENAALKAKIAALEG [4H1629-AA]

- interaction score (4H687-AA): -2.04
- interaction score (4H4001-AA): -1.19
- interaction score (4H797-AA): -1.79
- interaction score (4H717-AA): -1.32
- interaction score (4H883-AA): -1.75
- interaction score (4H953-AA): -1.79
- interaction score (4H918-AA): -0.824
- interaction score (4H967-AA): -1.57
- interaction score (4H568-AA): -1.85
Binder: DKNAALKAKNAALEAKIAALEAEIAALEG [4H4001-AA]

- interaction score (O6-bH): 0.712
- interaction score (O8-bH): 0.211
- interaction score (O7-bH): -0.662
- interaction score (O9-bH): 0.854
- interaction score (O5-bH): -1.53
- interaction score (O3-bH): 0.993
- interaction score (O8-bP): -0.645
- interaction score (O4-bH): -0.611
Binder: DENQELEKKNEELKRKIWELKKKIQELKR [O2-bH]
